Test results reported in the supplement of paper PMC12338614.
± gives the uncertainty stated by the source.

B1: library; numbered along this chain (parent)
chain: MEVVDPQQLGMFTEGELMSVGMDTFIHRIDSTEVIYQPRRKRAKLIGKYLMGDLLGEGSYGKVKEVLDSETLCRRAVKILKKKKLRRIPNGEANVKKEIQLLRRLRHKNVIQLVDVLYNEEKQKMYMVMEYCVCGMQEMLDSVPEKRFPVCQAHGYFCQLIDGLEYLHSQGIVHKDIKPGNLLLTTGGTLKISDLGVAEALHPFAADDTCRTSQGSPAFQPPEIANGLDTFSGFKVDIWSAGVTLYNITTGLYPFEGDNIYKLFENIGKGSYAIPGDCGPPLSDLLKGMLEYEPAKRFSIRQIRQHSWFRKKHPPAEAPVPIPPSPDTKDRWRSMTVVPYLEDLHGADEDEDLFDIEDDIIYTQDFTVPGQVPEEEASHNGQRRGLPKAVCMNGTEAAQLSTKSRAEGRAPNPARKACSASSKIRRLSACKQQ

Variants of: B1
Assay: STK11 functional score (HeLa growth suppression), rescaled enrichment; synonymous median = 1, nonsense median = 0 (normalised score)
Conditions: with HeLa; variant type: missense
How it was run: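 The values are functional scores: wild-type-corrected log ratios of post- versus pre-selection abundance, rescaled to synonymous and nonsense medians, merged over codons and replicate transfections, and carrying bootstrapped error. They derive from codon-randomised (POPCode), codon-optimised STK11 libraries that Bxb1 integrated at an AAVS1 landing pad in HeLa, with three transfections for each of three regions. Sequencing of tiled gDNA amplicons ran on NextSeq, at ~2 million reads per tile.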

Row | Variant | STK11 functional score
1 | P314Q | 1.17 ± 0.14
2 | Q100T | 1.3 ± 0.43
3 | Q100Y | 0.248 ± 0.19
4 | P149V | 0.694 ± 0.095
5 | A420R | 1.51 ± 0.28
6 | L80A | 1.21 ± 0.22
7 | E199Q | 0.887 ± 0.61
8 | E199G | 1.07 ± 0.44
9 | Y118C | 0.723 ± 0.082
10 | R87S | 0.989 ± 0.55
11 | R87L | 1.18 ± 0.15
12 | D208P | 1.62 ± 0.24
13 | E14P | 1.65 ± 0.34
14 | L45K | 1.53 ± 0.23
15 | L45V | 0.939 ± 0.17
16 | K423G | 1.56 ± 0.2
17 | K423A | 0.687 ± 0.66
18 | V337K | 1.53 ± 0.18
19 | I161L | 0.912 ± 0.23
20 | I161N | 0.158 ± 0.13
21 | K191A | 1.12 ± 0.22

Row | Variant | STK11 functional score
22 | L50P | 0.95 ± 0.22
23 | R409T | 1.47 ± 0.28
24 | R304V | 1.51 ± 0.27
25 | E349Q | 1.16 ± 0.57
26 | E349A | 1.5 ± 0.13
27 | L290R | -0.22 ± 0.065
28 | S271C | 0.412 ± 0.07
29 | E145W | 1.41 ± 0.34
30 | S421G | 1.38 ± 0.21
31 | S421D | 1.62 ± 0.17
32 | S421Y | 1.61 ± 0.12
33 | S421R | 1.44 ± 0.41
34 | A410F | 1.4 ± 0.2
35 | A410D | 1.17 ± 0.1
36 | Q123R | 0.312 ± 0.081
37 | Q123H | 1.11 ± 0.38
38 | S422G | 1.49 ± 0.26
39 | S422L | 1.17 ± 0.12
40 | L195A | 1.17 ± 0.39
41 | R331S | 1.32 ± 0.29
42 | S142I | 0.895 ± 0.26

Row | Variant | STK11 functional score
43 | S142V | 1.51 ± 0.23
44 | M125D | 0.704 ± 0.082
45 | D343C | 1.44 ± 0.35
46 | F366V | 1.42 ± 0.54
47 | D352S | 1.57 ± 0.14
48 | R425L | 1.4 ± 0.26
49 | L183V | 1.2 ± 0.18
50 | L183A | 0.587 ± 0.29
51 | A273G | 0.649 ± 0.24
52 | A198W | 1.16 ± 0.18
53 | E130I | 0.376 ± 0.28
54 | Q152E | 0.844 ± 0.51
55 | G91S | 0.833 ± 0.096
56 | V143A | 1.34 ± 0.084
57 | V143T | 1.59 ± 0.19
58 | C391V | 0.834 ± 0.47
59 | C391R | 1.6 ± 0.29
60 | C391M | 1.62 ± 0.29
61 | K311Y | 1.06 ± 0.41
62 | D358H | 0.325 ± 0.53
63 | D358L | 1.56 ± 0.17

Row | Variant | STK11 functional score
64 | E120F | 1.52 ± 0.4
65 | I46W | 0.0413 ± 0.094
66 | P221I | 0.337 ± 0.12
67 | I322M | 0.829 ± 0.47
68 | G215T | 1.19 ± 0.51
69 | P373R | 0.782 ± 0.29
70 | I360A | 1.6 ± 0.15
71 | G251C | -0.00733 ± 0.1
72 | G251L | -0.144 ± 0.1
73 | Y253S | 0.394 ± 0.12
74 | Y253L | 1.27 ± 0.12
75 | A389G | 1.46 ± 0.35
76 | A93P | 1.68 ± 0.42
77 | L344K | 1.59 ± 0.27
78 | F204L | 1.17 ± 0.4
79 | F204C | 0.849 ± 0.29
80 | P179R | -0.0831 ± 0.084
81 | A377Y | 1.49 ± 0.16
82 | E98G | 0.397 ± 0.099
83 | E98A | 0.326 ± 0.083
84 | E98L | 0.433 ± 0.22
